In publication PMC10857811 (Chem, 2024):
Where a chain is given by its changes, count along the chain named. Numbers in names are those of the source.

B1: Pseudomonas fluorescens esterase variant p2 (T3C) (enzyme)
chain: SCFVAKDGTQIYFKDWGSGKPVLFSHGWLLDADMWEYQMEYLSSRGYRTIAFDRRGFGRSDQPWTGNDYDTFADDIAQLIEHLDLKEVTLVGFSMGGGDVARYIARHGSARVAGLVLLGAVTPLFGQKPDYPQGVPLDVFARFKTELLKDRAQFISDFNAPFYGINKGQVVSQGVQTQTLQIALLASLKATVDCVTAFAETDFRPDMAKIDVPTLVIHGDGDQIVPFETTGKVAAELIKGAELKVYKDAPHGFAVTHAQQLNEDLLAFLKR
B2: Pseudomonas fluorescens esterase variant p3 (Q174C) (enzyme)
chain: B1 chain with C2T, Q173C
B3: Pseudomonas fluorescens esterase variant p4 (T3C and Q174C) (enzyme)
chain: B1 chain with Q173C

Biological target: the molecule itself
Assay: cross-linking
B1 was tested, and the “stoichiometry N” value was 3.
For B2, the “stoichiometry N” value was 3.
In the case of B3, the “stoichiometry N” value is reported as 3.
